Results on one substance are retold here after US20220305006.

This data set concerns the target recombinant sAPPα, human, amino acids 19-613 (UniProt P05067).

Sequence of Recombinant Human Cathepsin D (chain, as listed by the source): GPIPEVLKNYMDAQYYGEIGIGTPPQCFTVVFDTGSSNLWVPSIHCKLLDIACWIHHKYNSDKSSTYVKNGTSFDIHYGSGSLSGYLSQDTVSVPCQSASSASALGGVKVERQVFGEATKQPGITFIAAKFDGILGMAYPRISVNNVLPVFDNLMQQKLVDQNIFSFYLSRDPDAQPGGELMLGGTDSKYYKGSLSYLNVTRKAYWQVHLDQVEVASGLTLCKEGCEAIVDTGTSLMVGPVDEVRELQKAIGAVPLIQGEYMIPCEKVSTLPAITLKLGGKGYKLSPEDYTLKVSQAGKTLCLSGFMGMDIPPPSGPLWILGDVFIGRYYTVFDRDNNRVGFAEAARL
Sequence of recombinant sAPPα, human, amino acids 19-613 (P05067 19-613): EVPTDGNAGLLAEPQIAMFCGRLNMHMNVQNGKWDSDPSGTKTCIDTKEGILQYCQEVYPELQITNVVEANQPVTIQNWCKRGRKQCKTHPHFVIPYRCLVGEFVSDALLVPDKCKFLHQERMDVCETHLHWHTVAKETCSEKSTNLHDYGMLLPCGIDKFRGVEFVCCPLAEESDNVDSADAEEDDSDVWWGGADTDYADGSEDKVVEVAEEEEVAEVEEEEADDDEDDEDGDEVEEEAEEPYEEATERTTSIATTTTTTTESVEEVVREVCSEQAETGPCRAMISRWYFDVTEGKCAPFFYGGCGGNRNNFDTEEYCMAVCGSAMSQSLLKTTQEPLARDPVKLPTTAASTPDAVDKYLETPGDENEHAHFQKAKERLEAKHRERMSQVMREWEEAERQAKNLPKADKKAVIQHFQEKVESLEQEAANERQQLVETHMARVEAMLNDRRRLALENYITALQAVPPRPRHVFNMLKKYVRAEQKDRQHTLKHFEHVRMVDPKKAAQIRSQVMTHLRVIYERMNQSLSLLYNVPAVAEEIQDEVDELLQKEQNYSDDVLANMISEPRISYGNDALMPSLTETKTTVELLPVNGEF

In the case of Recombinant Human Cathepsin D, the “Cat D activity (fluorogenic substrate)” value was “sAPPα elicited no inhibition of Cat D activity”.
